Reference: the supplement of paper PMC10567573

B1: DULLARD (parent)
chain: LVVFTASMEIYGSAVADKLDNSRS
B2: MIA2 (parent)
chain: DMVSNIELPTRIHEEVYFEPSSSK

Variants of: B1
Assay: protein stability index of a GFP-peptide fusion (GPS, HEK-293T) (PSI 1-6); higher = more stable
Conditions: c terminus: a fixed tail appended
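Also: lentivirally expressed fusions sorted by FACS into six bins by GFP to DsRed ratio, PSI derived from sequencing read proportions per bin multiplied by bin number.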

Variant	protein stability index
LVVFTASMEIYGSATADKLDNSRS [V15T]	1.66
LVVFTASMEIYGSAEADKLDNSRS [V15E]	2.32
LVVFTASMEIYGSAIADKLDNSRS [V15I]	3.03
LVVFTASMEIYGSADADKLDNSRS [V15D]	1.11
LVVFTASMEIYGSARADKLDNSRS [V15R]	3.02
LVVFTASMEIGGSAVADKLDNSRS [Y11G]	1.97
LVVFTASMEIKGSAVADKLDNSRS [Y11K]	1.51
LVVFTASMEIQGSAVADKLDNSRS [Y11Q]	2.07
LVVFTASMEIEGSAVADKLDNSRS [Y11E]	2.44
LVVFTASMEIAGSAVADKLDNSRS [Y11A]	3.03
LVVFTASMEICGSAVADKLDNSRS [Y11C]	2.48
LVVFTASMEISGSAVADKLDNSRS [Y11S]	2.13
LVVFTASMEIIGSAVADKLDNSRS [Y11I]	2.51
LVVFTASMEIRGSAVADKLDNSRS [Y11R]	1.88
LVYFTASMEIYGSAVADKLDNSRS [V3Y]	2.68
LVLFTASMEIYGSAVADKLDNSRS [V3L]	1.71
LVPFTASMEIYGSAVADKLDNSRS [V3P]	3.51
LVFFTASMEIYGSAVADKLDNSRS [V3F]	2.15
LVCFTASMEIYGSAVADKLDNSRS [V3C]	2.03
LVHFTASMEIYGSAVADKLDNSRS [V3H]	2.21
LVRFTASMEIYGSAVADKLDNSRS [V3R]	2.23
LVMFTASMEIYGSAVADKLDNSRS [V3M]	3.28
LVAFTASMEIYGSAVADKLDNSRS [V3A]	2.48
LVVFDASMEIYGSAVADKLDNSRS [T5D]	2.09
LVVFAASMEIYGSAVADKLDNSRS [T5A]	2.22
LVVFVASMEIYGSAVADKLDNSRS [T5V]	3.31
LVVQTASMEIYGSAVADKLDNSRS [F4Q]	2.78
LVVATASMEIYGSAVADKLDNSRS [F4A]	1.61

Variant	protein stability index
LVVGTASMEIYGSAVADKLDNSRS [F4G]	2.24
LVVRTASMEIYGSAVADKLDNSRS [F4R]	2.14
LVVWTASMEIYGSAVADKLDNSRS [F4W]	3.77
LVVNTASMEIYGSAVADKLDNSRS [F4N]	2.4
LVVITASMEIYGSAVADKLDNSRS [F4I]	3.55
LVVTTASMEIYGSAVADKLDNSRS [F4T]	1.56
LVVSTASMEIYGSAVADKLDNSRS [F4S]	2.34
LVVFTASMEIYGSAVADKIDNSRS [L19I]	1.62
LVVFTASMEIYGSAVADKSDNSRS [L19S]	2.02
LVVFTASMEIYGSAVADKMDNSRS [L19M]	2.41
LVVFTASMEIYGSAVADKQDNSRS [L19Q]	2.45
LVVFTASMEIYGSAVADKFDNSRS [L19F]	2.41
LVVFTASMEIYGSAVADKLDNSRR [S24R]	1.88
LVVFTASMEIYGSAVADKLDNSRC [S24C]	2.69
LVVFTASMEIYGSAVADKLDNSRE [S24E]	2.29
LVVFTASMEIYGSAVADKLDNSRH [S24H]	2.46
LVVFTASMEIYGSAVADKLDNSRL [S24L]	2.2
LVVFTASMEMYGSAVADKLDNSRS [I10M]	1.28
LVVFTASMEVYGSAVADKLDNSRS [I10V]	2.24
LVVFTASMEAYGSAVADKLDNSRS [I10A]	1.05
LVVFTASMETYGSAVADKLDNSRS [I10T]	1.87
LVVFTASMEYYGSAVADKLDNSRS [I10Y]	1.92
LVVFTASMEFYGSAVADKLDNSRS [I10F]	2.94
LVVFTASMEQYGSAVADKLDNSRS [I10Q]	1.62
LVVFTASMESYGSAVADKLDNSRS [I10S]	1.05
LVVFTASMECYGSAVADKLDNSRS [I10C]	1.75
LVVFTASMEEYGSAVADKLDNSRS [I10E]	1.5

Variants of: B2
Assay: as above
Conditions: c terminus: a fixed tail appended

Variant	protein stability index
DMVSNIELPTRIHEEVYFEPSSDK [S23D]	4.84
DMVSNIELPTRIHEEVYFEPSSVK [S23V]	3.82
DMVSNIELPTRIHEEVYFEPSSEK [S23E]	5.16
DMVSNIELPTRIHEEVYFEPSSRK [S23R]	3.56
DMVSNIELPTRIHEEVYFEPSSNK [S23N]	3.98
DMVSNIELPTRIHEEVYFEPSSQK [S23Q]	4.41
DMVSNIELPTRIHEEVYFEPSSYK [S23Y]	4.18
DMVSNIELPTRIHEEVYFEPSSIK [S23I]	3.89
DMVSNIELPTRIHEEVYFEPSSLK [S23L]	3.49
DMVSNIELPTRIHEEVYFEPSSTK [S23T]	3.92
DMVSNIELPTRIHEEVYFEPSSKK [S23K]	3.65
DMVSNIELPTRIHEEVYFEPSSHK [S23H]	3.96
DMVSNIELPTRIHEEVYFEPSSPK [S23P]	3.67
DMVSNIELPTRIHEEVYFEPSSFK [S23F]	3.11
DMVSNIELPTRIHEEVYFEPSSMK [S23M]	3.29
DMVSNIELPTRIHEEVYFEPSSGK [S23G]	4.28
DMVSNIELPTRIHEEVYFEPSSCK [S23C]	4
DMVSNIELPTRIHEEVYFEPSSAK [S23A]	3.2
DMVSNIELPTRIHEEVYFEPSSWK [S23W]	3.08
DMVSNIELPTRIHEEVYFEPSWSK [S22W]	3.17

Variant	protein stability index
DMVSNIELPTRIHEEVYFEPSYSK [S22Y]	3.08
DMVSNIELPTRIHEEVYFEPSSST [K24T]	4.02
DMVSNIELPTRIHEEVYFEPSSSN [K24N]	4.17
DMVSNIELPTRIHEEVYFEPSSSC [K24C]	3.66
DMVSNIELPTRIHEEVYFEPSSSS [K24S]	3.95
DMVSNIELPTRIHEEVYFEPSSSH [K24H]	3.56
DMVSNIELPTRIHEEVYFEPSSSY [K24Y]	3.32
DMVSNIELPTRIHEEVYFEPSSSQ [K24Q]	4.89
DMVSNIELPTRIHEEVYFEPSSSI [K24I]	2.98
DMVSNIELPTRIHEEVYFEPSSSL [K24L]	3.84
DMVSNIELPTRIHEEVYFEPSSSW [K24W]	2.52
DMVSNIELPTRIHEEVYFEPSSSV [K24V]	3.51
DMVSNIELPTRIHEEVYFEPSSSA [K24A]	3.64
DMVSNIELPTRIHEEVYFEPSSSP [K24P]	4.08
DMVSNIELPTRIHEEVYFEPSSSE [K24E]	4.11
DMVSNIELPTRIHEEVYFEPSSSF [K24F]	3.28
DMVSNIELPTRIHEEVYFEPSSSM [K24M]	3.57
DMVSNIELPTRIHEEVYFEPSSSG [K24G]	4.55
DMVSNIELPTRIHEEVYFEPSSSR [K24R]	3.85
